The target in assay [1] is T1, mouse TNFα (mouse, UniProt P06804 80-235).
T1 construct: the target is inferred from the name of the VHH
T1 sequence (looked up): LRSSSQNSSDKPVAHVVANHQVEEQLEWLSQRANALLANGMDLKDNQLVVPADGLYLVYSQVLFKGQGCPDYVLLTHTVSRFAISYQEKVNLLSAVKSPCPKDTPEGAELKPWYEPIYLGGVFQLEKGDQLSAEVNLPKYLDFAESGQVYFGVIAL
Description: BLI (ForteBio Octet Red), target adsorbed on the probe. Background: In BLI a coated tip is dipped into the sample, and binding shifts an interference pattern.

In assay [2] the target is T1, mouse TNFα. Description: cell-based or functional assay.
The target of assay [3] is IL-1β. The assay can be described thus: BLI (ForteBio Octet Red), target adsorbed on the probe.
IL-1β, sequence (P01584 117-269): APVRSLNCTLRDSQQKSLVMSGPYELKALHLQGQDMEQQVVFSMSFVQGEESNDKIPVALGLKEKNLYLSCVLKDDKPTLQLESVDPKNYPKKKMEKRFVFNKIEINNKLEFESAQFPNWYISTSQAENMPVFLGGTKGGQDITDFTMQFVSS

B1: (anti-(mouse)TNFα VHH antibody-EMCH)273-HyA (2000 kDa) (VHH)
VHH: QVQLQDSGGGLVQAGGSLRLSCAASGGTFSSIIMAWFRQAPGKEREFVGAVSWSGGTTVYADSVLGRFEISRDSARKSVYLQMNSLKPEDTAVYYCAARPYQKYNWASASYNVWGQGTQVTVSS
modifications: engineered cysteine thiol linked through EMCH (maleimide) to hyaluronic acid (HyA, 2000 kDa)
notes: Multivalent peptide-polymer conjugate: about 273 VHH per HyA chain
By Kd is commonly meant a measure of binding affinity in units of concentration. A low value points to tighter binding. Consider B1, for which binding in assay [1] was put at a Kd of 0.17 nM. The “IC50 (nM), Bioactivity Data; assay not given, the filing describes IC50 from the L929 fibroblast cell survival assay with TNFα” value in assay [2] was found to be 120 nM.

B2: (anti-IL-1β scFv antibody-EMCH)15-HyA (2000 kDa) (scFv)
scFv: SNAEIVMTQSPSTLSASVGDRVIITCQASQSIDNWLSWYQQKPGKAPKLLIYRASTLASGVPSRFSGSGSGAEFTLTISSLQPDDFATYYCQNTGGGVSIAFGQGTKLTVLGGGGGSGGGGSGGGGSGGGGSEVQLVESGGGLVQPGGSLRLSCTASGFSLSSAAMAWVRQAPGKGLEWVGIIYDSASTYYASWAKGRFTISRDTSKNTVYLQMNSLRAEDTAVYYCARERAIFSGDFVLWGQGTLVTVSSSPSTPPTPSPSTPPGGC
modifications: engineered cysteine thiol linked through EMCH (maleimide) to hyaluronic acid (HyA, 2000 kDa)
In assay [3], B2 displayed a Kd of 0.84 nM.

B3: (anti-IL-1β scFv antibody-EMCH)-CMC (700 kDa) (scFv)
scFv: SNAEIVMTQSPSTLSASVGDRVIITCQASQSIDNWLSWYQQKPGKAPKLLIYRASTLASGVPSRFSGSGSGAEFTLTISSLQPDDFATYYCQNTGGGVSIAFGQGTKLTVLGGGGGSGGGGSGGGGSGGGGSEVQLVESGGGLVQPGGSLRLSCTASGFSLSSAAMAWVRQAPGKGLEWVGIIYDSASTYYASWAKGRFTISRDTSKNTVYLQMNSLRAEDTAVYYCARERAIFSGDFVLWGQGTLVTVSSSPSTPPTPSPSTPPGGC
modifications: engineered cysteine thiol linked through EMCH (maleimide) to carboxymethyl cellulose (CMC, 700 kDa)
As to B3, the dissociation constant (Kd) in assay [3] stood at 0.02 nM.

The record behind these values is US20210046181A1 (VALITOR, published 2021).
